Consider 4 molecules from paper PMC11341764, “Sae2 controls Mre11 endo- and exonuclease activities by different mechanisms” (Nature Communications, 2024).

T1: Rad50-C47 (Saccharomyces cerevisiae, UniProt P12753 1-1312, K1299R)
T1 sequence: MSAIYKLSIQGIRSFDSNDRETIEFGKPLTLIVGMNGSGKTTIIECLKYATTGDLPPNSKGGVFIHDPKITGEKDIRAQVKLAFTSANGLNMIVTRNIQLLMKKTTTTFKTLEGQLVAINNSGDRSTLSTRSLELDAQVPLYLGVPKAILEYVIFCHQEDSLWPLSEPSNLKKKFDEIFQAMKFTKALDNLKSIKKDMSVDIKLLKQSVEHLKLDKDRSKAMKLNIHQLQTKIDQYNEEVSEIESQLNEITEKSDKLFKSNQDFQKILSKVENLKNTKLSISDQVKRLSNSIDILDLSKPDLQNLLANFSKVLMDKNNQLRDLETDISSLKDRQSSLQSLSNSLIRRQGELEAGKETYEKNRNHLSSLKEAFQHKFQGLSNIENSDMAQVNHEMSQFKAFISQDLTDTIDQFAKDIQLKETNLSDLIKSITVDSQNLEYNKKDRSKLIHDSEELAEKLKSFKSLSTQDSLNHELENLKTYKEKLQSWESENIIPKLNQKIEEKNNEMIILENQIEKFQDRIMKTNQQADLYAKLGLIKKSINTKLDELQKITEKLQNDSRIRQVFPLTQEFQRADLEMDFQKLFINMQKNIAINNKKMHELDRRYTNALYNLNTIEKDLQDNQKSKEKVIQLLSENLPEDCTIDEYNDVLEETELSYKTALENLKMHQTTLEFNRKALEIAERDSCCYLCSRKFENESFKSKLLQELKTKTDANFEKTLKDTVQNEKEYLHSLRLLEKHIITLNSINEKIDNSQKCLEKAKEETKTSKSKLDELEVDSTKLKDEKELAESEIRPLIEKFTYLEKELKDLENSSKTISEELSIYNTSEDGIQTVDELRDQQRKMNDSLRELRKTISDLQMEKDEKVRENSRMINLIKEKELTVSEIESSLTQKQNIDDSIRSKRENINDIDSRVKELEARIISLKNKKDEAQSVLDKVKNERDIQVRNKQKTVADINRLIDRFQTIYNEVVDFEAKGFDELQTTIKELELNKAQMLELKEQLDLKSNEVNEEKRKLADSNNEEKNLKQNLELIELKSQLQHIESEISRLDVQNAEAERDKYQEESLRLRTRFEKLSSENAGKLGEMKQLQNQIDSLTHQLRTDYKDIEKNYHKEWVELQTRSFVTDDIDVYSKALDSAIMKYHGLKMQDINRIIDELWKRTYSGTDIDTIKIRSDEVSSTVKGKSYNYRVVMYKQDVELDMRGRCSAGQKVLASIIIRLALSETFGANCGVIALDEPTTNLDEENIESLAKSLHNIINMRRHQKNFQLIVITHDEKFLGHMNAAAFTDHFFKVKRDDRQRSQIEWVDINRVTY

B1: Rad50-FLAG (wild-type) (natural protein, yeast, UniProt P12753 1-1312, looked up)
chain: T1 sequence with R1299K
notes: Rad50, yeast, expressed from the pFB-RAD50-FLAG vector; Dimeric by mass photometry; also called Rad50-WT; wild-type Rad50 protein
B2: 70 bp dsDNA (PC210/PC211) (dsDNA)
DNA 1: GTAAGTGCCGCGGTGCGGGTGCCAGGGCGTGCCCTTGGGCTCCCCGGGCGCGTACTCCACCTCATGCATC
DNA 2: GATGCATGAGGTGGAGTACGCGCCCGGGGAGCCCAAGGGCACGCCCTGGCACCCGCACCGCGGCACTTAC
modifications: biotinylated dT in the oligonucleotides (Table S1; positions marked by bold underline, lost in the text)
B3: phosphorylated MBP-Sae2 (natural protein, yeast, UniProt P46946 1-345, looked up)
chain: MVTGEENVYLKSSLSILKELSLDELLNVQYDVTTLIAKRVQALQNRNKCVLEEPNSKLAEILCHEKNAPQQSSQTSAGPGEQDSEDFILTQFDEDIKKESAEVHYRNENKHTVQLPLVTMPPNRHKRKISEFSSPLNGLNNLSDLEDCSDTVIHEKDNDKENKTRKLLGIELENPESTSPNLYKNVKDNFLFDFNTNPLTKRAWILEDFRPNEDIAPVKRGRRKLERFYAQVGKPEDSKHRSLSVVIESQNSDYEFAFDNLRNRSKSPPGFGRLDFPSTQEGNEDKKKSQEIIRRKTKYRFLMASNNKIPPYEREYVFKREQLNQIVDDGCFFWSDKLLQIYARC
modifications: phosphorylated (expressed in the presence of phosphatases inhibitors); sites not stated
notes: Sae2, yeast, from the pFB-MBP-Sae2-His vector expressing MBP and His-tagged Sae2; also called MBP-pSae2; source: Sf9, from extracts, held on amylose resin and washed

For one data set, the target named is Rad50-C47-FLAG (yeast) (UniProt P12753). The experiment in a line: mass photometry; Rad50 variants alone; molecular weight estimated.
Data set [1] concerns the molecule itself. The data set is described as above.
The target of a further data set is T1, Rad50-C47. The experiment in a line: EMSA; 1 mM ATP-gamma-S, 5 mM Mg2+; comparable to WT; 25 mM Tris-acetate pH 7.5, 5 mM Mg chloride, 1 mM DTT, 0.25 ug/ul BSA, 1 mM ATP-gamma-S, 1 nM DNA, 15 min at 30 C; 6% PAGE in TAE on ice. Particulars: protein: recombinant; tags: FLAG; chain copies: 2; label: PC210 3' 32P-dC added by TdT; blunt apart from the 3' TdT-added labeled dC on PC210. On the technique in general: A gel shift assay detects complexes by their altered migration in electrophoresis.

The target of the data set “Rad50-FLAG (wild-type)” is B1. The experiment in a line: pull-down; MBP-pSae2 (bait) from Sf9 extracts immobilised on amylose resin and washed, incubated 1 h at 4 °C with 2.5 μg purified Rad50-FLAG variants (prey); 50 mM Tris-HCl pH 7.5, 2 mM EDTA, 80 mM NaCl, 0.2% NP40; eluted with 20 mM maltose; anti-FLAG blot. Particulars: both partners purified.

The term stoichiometry N denotes the number of molecules, sites or subunits per partner or assembly.

Where a chain is given by its changes, count along the chain named.

“Rad50-C47-FLAG (from UniProt P12753 1-1312) (natural protein)”: the stoichiometry N in the data set with Rad50-C47-FLAG (yeast) is 2.
Turning to B1, in data set [1], the “stoichiometry N” value was 2.
With B2, the binding result with Rad50-C47 is on record as “binds”.
With B3, the binding result in the data set with Rad50-FLAG (wild-type) was “binds”.
